Test results published in US20180291110A1 (Hoffmann-La Roche, published 2018).
Changes are numbered by the printed parent chain.

B1: 4/94 SEQ ID NO 199 / murine VL (antibody, V domains shown)
VH: QVQLQESGPGLVKPSETLSLTCTVSGFNIKDTYIHWVIQRPGKGLEWIGRIDPANGDTKSDPSLQSRVTISADTSKNQASLKLSSVTAADTAVYYCVRDYLYPYYFDFWGQGTTVTVSS
VL: KIVMTQSPKSMSMSVGERVTLNCRASESVDTYVSWYQQKPEQSPELLIYGASNRYTGVPDRFTGSGSATDFTLTISSVQAEDLADYYCGQTYNYPLTFGAGTKLELKR
B2: 4/94 SEQ ID NO 200 / murine VL (antibody, V domains shown)
VH: EVQLVESGGGLVQPGGSLRLSCAASGFNIKDTYIHWVIQAPGKGLEWVGRIDPANGDTKSDPSVQVRATISADTSKNTAYLQMNSLRAEDTAVYYCVRDYLYPYYFDFWGQGTTVTVSS
VL: B1 VL
B3: 4/94 SEQ ID NO 199 / SEQ ID NO 207 (antibody, V domains shown)
VH: B1 VH
VL: KIVLTQSPGTLSLSPGERATLSCRASESVDTYVSWYQQKPGQAPRLLIYGASNRYTGVPDRFSGSGSGTDFTLTISRLEPEDFADYYCGQTYNYPLTFGQGTKLEI
B4: 4/94 SEQ ID NO 199 / SEQ ID NO 208 (antibody, V domains shown)
VH: B1 VH
VL: B3 VL with K1E
B5: 4/94 SEQ ID NO 199 / SEQ ID NO 209 (antibody, V domains shown)
VH: B1 VH
VL: B3 VL with V58I
B6: 4/94 SEQ ID NO 197 / SEQ ID NO 201 (antibody, V domains shown)
VH: QVQLVQSGAEVKKPGSSVKVSCKASGFNIKDTYIHWVIQAPGQGLEWMGRIDPANGDTKSDPKFQGRVTITADESTSTAYMELSSLRSEDTAVYYCVRDYLYPYYFDFWGQGTTVTVSS
VL: KIQMTQSPSSLSASVGDRVTITCRASESVDTYVSWYQQKPGKAPKLLIYGASNRYTGVPSRFSGSGSGTDFTLTISSLQPEDFADYYCGQTYNYPLTFGQGTKLEI
B7: 4/94 SEQ ID NO 196 / SEQ ID NO 207 (antibody, V domains shown)
VH: B6 VH with S16A, E74T, A79V
VL: B3 VL
B8: 4/94 SEQ ID NO 199 / SEQ ID NO 201 (antibody, V domains shown)
VH: B1 VH
VL: B6 VL
B9: 4/94 SEQ ID NO 200 / SEQ ID NO 201 (antibody, V domains shown)
VH: B2 VH
VL: B6 VL
B10: 4/94 SEQ ID NO 197 / SEQ ID NO 207 (antibody, V domains shown)
VH: B6 VH
VL: B3 VL
B11: 4/94 SEQ ID NO 194 / SEQ ID NO 207 (antibody, V domains shown)
VH: B6 VH with S16A, G66V, E74T, A79V
VL: B3 VL
B12: 4/94 SEQ ID NO 198 / SEQ ID NO 208 (antibody, V domains shown)
VH: B6 VH with A40R
VL: B3 VL with K1E
B13: 4/94 SEQ ID NO 198 / SEQ ID NO 207 (antibody, V domains shown)
VH: B6 VH with A40R
VL: B3 VL
B14: 4/94 SEQ ID NO 196 / SEQ ID NO 209 (antibody, V domains shown)
VH: B6 VH with S16A, E74T, A79V
VL: B3 VL with V58I
B15: 4/94 SEQ ID NO 195 / SEQ ID NO 207 (antibody, V domains shown)
VH: B6 VH with S16A, D61A, G66V, E74T, A79V
VL: B3 VL
B16: 4/94 SEQ ID NO 197 / SEQ ID NO 208 (antibody, V domains shown)
VH: B6 VH
VL: B3 VL with K1E
B17: 4/94 SEQ ID NO 197 / SEQ ID NO 209 (antibody, V domains shown)
VH: B6 VH
VL: B3 VL with V58I
B18: 4/94 SEQ ID NO 198 / SEQ ID NO 209 (antibody, V domains shown)
VH: B6 VH with A40R
VL: B3 VL with V58I
B19: 4/94 SEQ ID NO 195 / SEQ ID NO 208 (antibody, V domains shown)
VH: B6 VH with S16A, D61A, G66V, E74T, A79V
VL: B3 VL with K1E
B20: 4/94 SEQ ID NO 198 / SEQ ID NO 201 (antibody, V domains shown)
VH: B6 VH with A40R
VL: B6 VL
B21: 4/94 SEQ ID NO 196 / SEQ ID NO 208 (antibody, V domains shown)
VH: B6 VH with S16A, E74T, A79V
VL: B3 VL with K1E
B22: 4/94 SEQ ID NO 195 / SEQ ID NO 209 (antibody, V domains shown)
VH: B6 VH with S16A, D61A, G66V, E74T, A79V
VL: B3 VL with V58I
B23: 4/94 SEQ ID NO 194 / SEQ ID NO 209 (antibody, V domains shown)
VH: B6 VH with S16A, G66V, E74T, A79V
VL: B3 VL with V58I
B24: 4/94 SEQ ID NO 194 / SEQ ID NO 208 (antibody, V domains shown)
VH: B6 VH with S16A, G66V, E74T, A79V
VL: B3 VL with K1E
B25: 4/94 SEQ ID NO 200 / SEQ ID NO 207 (antibody, V domains shown)
VH: B2 VH
VL: B3 VL
B26: 4/94 SEQ ID NO 200 / SEQ ID NO 208 (antibody, V domains shown)
VH: B2 VH
VL: B3 VL with K1E
B27: 4/94 SEQ ID NO 200 / SEQ ID NO 209 (antibody, V domains shown)
VH: B2 VH
VL: B3 VL with V58I
B28: Pertuzumab HC x Pertuzumab (Tras.L3) LC (antibody, V domains shown)
VH: EVQLVESGGGLVQPGGSLRLSCAASGFTFTDYTMDWVRQAPGKGLEWVADVNPNSGGSIYNQRFKGRFTLSVDRSKNTLYLQMNSLRAEDTAVYYCARNLGPSFYFDYWGQGTLVTVSS
VL: DIQMTQSPSSLSASVGDRVTITCKASQDVSIGVAWYQQKPGKAPKLLIYSASYRYTGVPSRFSGSGSGTDFTLTISSLQPEDFATYYCQQHYTTPPTFGQGTKVEIK
notes: human IgG
B29: Trastuzumab HC x Pertuzumab (Tras.L3) LC (antibody, V domains shown)
VH: not shown
VL: B28 VL
notes: human IgG
B30: Trastuzumab HC x Pertuzumab (Tras.L3)(QM) LC (antibody, V domains shown)
VH: not shown
VL: B28 VL with I31T, G32A, Y53F, G66R
B31: Pertuzumab aff.mat. clone D1 with common light chain (Fab, V domains shown)
VH: B28 VH with T30N, S103F
VL: B28 VL with I31T, G32A, Y53F, G66R
notes: bacterial Fab with Flag-tag, from supernatant
B32: Pertuzumab aff.mat. clone C8 with common light chain (Fab, V domains shown)
VH: B28 VH with Y60M, Q62R
VL: B28 VL with I31T, G32A, Y53F, G66R
notes: bacterial Fab
B33: Pertuzumab aff.mat. clone E1 with common light chain (Fab, V domains shown)
VH: B28 VH with T30A, S103W
VL: B28 VL with I31T, G32A, Y53F, G66R
notes: bacterial Fab
B34: Pertuzumab aff.mat. clone G2 with common light chain (Fab, V domains shown)
VH: B28 VH with S58Y, Y60V, Q62R
VL: B28 VL with I31T, G32A, Y53F, G66R
notes: bacterial Fab
B35: Pertuzumab aff.mat. clone A1 with common light chain (Fab, V domains shown)
VH: B28 VH with Y60V, S103W
VL: B28 VL with I31T, G32A, Y53F, G66R
notes: bacterial Fab
B36: Pertuzumab aff.mat. clone B2 with common light chain (Fab, V domains shown)
VH: B28 VH with T30N, V37F, S103N
VL: B28 VL with I31T, G32A, Y53F, G66R
notes: bacterial Fab

What follows are binders tested against T1, human transferrin receptor (recombinant, for surface plasmon resonance) (human, UniProt P02786 89-760) (assay: SPR).
T1 construct: also called huTfR; human transferrin receptor-biotinylated
T1 sequence (P02786 89-760 limits assumed): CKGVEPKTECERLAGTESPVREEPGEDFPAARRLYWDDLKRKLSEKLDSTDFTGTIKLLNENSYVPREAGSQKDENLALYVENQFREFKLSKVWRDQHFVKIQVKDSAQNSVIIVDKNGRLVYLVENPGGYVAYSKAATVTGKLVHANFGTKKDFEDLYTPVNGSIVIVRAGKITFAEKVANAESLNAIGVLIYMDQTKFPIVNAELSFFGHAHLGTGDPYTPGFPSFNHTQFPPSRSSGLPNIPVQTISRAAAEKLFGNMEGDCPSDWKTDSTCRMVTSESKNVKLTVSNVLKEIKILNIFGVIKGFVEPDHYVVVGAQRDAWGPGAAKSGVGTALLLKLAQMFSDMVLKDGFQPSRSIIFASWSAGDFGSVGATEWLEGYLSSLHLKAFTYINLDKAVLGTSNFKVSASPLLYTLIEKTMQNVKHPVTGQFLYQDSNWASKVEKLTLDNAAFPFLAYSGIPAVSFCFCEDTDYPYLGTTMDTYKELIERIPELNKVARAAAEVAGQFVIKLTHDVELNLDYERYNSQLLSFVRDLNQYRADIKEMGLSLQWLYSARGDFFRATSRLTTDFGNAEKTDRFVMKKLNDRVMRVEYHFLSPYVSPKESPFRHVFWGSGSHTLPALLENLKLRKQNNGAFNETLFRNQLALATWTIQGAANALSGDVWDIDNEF
For B1, the koff was 0.000381 s⁻¹. For B2, the koff was 0.000232 s⁻¹. Binder B3 has a koff of 0.000527 s⁻¹. For B4, the koff was 0.00055 s⁻¹. In the case of B5, the koff is reported as 0.000552 s⁻¹. B6 gave a koff of 0.000657 s⁻¹. For B7, the koff was 0.00043 s⁻¹. Work on B8 yielded a koff of 0.000486 s⁻¹. Binder B9 has a koff of 0.000274 s⁻¹. With B10 the koff was 0.000703 s⁻¹. For B11, the koff was 0.000454 s⁻¹. Binder B12 has a koff of 0.000717 s⁻¹. B13 gave a koff of 0.000717 s⁻¹. B14 showed a koff of 0.000452 s⁻¹. Binder B15 has a koff of 0.000426 s⁻¹. In the case of B16, the koff is reported as 0.000683 s⁻¹. B17 gave a koff of 0.000705 s⁻¹. Binder B18 has a koff of 0.000728 s⁻¹. B19 was tested, and the koff was 0.000415 s⁻¹. B20 showed a koff of 0.000684 s⁻¹. B21 gave a koff of 0.000434 s⁻¹. B22 was tested, and the koff was 0.000438 s⁻¹. In the case of B23, the koff is reported as 0.000448 s⁻¹. B24 gave a koff of 0.000476 s⁻¹. With B25 the koff was 0.000299 s⁻¹. With B26 the koff was 0.000306 s⁻¹. B27 showed a koff of 0.000326 s⁻¹.

Each binder was assayed against T2, Her2 ECD (amino acids 1 to 629 of matured HER2 with C-terminal avi-tag and His-tag) (human, UniProt P04626 23-652) (assay: SPR, Ab captured, Her2 analyte).
T2 construct: also called purified Her2
B28 gave a Kd of 26.7 nM, a koff of 0.00173 s⁻¹ and a kon of 64700 M⁻¹ s⁻¹. With B29 the Kd was 1090 nM, the koff was 0.05 s⁻¹ and the kon was 41900 M⁻¹ s⁻¹.

Biological target: T2, Her2 ECD (amino acids 1 to 629 of …)
Experiment: SPR, Ab captured, Her2 analyte
Remark: another data set of the same source
Binder B28 has a Kd of 4.96 nM, a koff of 0.00209 s⁻¹ and a kon of 422000 M⁻¹ s⁻¹. With B29 the Kd was 72.5 nM, the koff was 0.0236 s⁻¹ and the kon was 325000 M⁻¹ s⁻¹.

Biological target: T2, Her2 ECD (amino acids 1 to 629 of …)
Experiment: SPR, Ab captured, Her2 analyte
Remark: another data set of the same source
B30 was tested, and the Kd was 0.202 nM, the koff was 5.42e-05 s⁻¹ and the kon was 269000 M⁻¹ s⁻¹.

These binders were tested against T2, Her2 ECD (amino acids 1 to 629 of …) (assay: SPR, Fab from bacterial supernatant captured, Her2 analyte).
With B31 the Kd was 1 nM. B32 showed a Kd of 3 nM. For B33, the Kd was 0.5 nM. With B34 the Kd was 1 nM. Binder B35 has a Kd of 1 nM. B36 gave a Kd of 1 nM.
